Measurements: patent US20190092852A1 (Genentech, published 2019)

Tests used:
[1] = biological target: T1, human IL-33 (construct not stated) (human, UniProt O95760 112-270); test: cell-based or functional assay
T1 sequence (looked up): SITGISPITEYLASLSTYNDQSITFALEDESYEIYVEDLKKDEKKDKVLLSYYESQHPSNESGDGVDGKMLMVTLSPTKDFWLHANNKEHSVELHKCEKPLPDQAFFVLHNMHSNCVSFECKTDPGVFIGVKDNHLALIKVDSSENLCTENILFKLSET

[2] = biological target: T2, human IL-33 N-His (human); test: cell-based or functional assay
T2 chain: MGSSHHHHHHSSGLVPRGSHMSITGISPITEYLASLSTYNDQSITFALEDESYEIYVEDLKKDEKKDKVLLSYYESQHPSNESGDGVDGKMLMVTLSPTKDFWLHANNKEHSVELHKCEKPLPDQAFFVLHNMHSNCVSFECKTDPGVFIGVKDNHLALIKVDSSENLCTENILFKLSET

[3] = biological target: T3, cyno IL-33 (construct not stated) (cynomolgus monkey, UniProt A0A2K5W3I1 112-269); test: SPR, BIACORE 3000, antibody captured on anti-human Fab, 25 C, 1:1 Langmuir model; lot 1
T3 construct: also called cynomolgus IL-33; cyno IL-33 (Genentech)
T3 sequence: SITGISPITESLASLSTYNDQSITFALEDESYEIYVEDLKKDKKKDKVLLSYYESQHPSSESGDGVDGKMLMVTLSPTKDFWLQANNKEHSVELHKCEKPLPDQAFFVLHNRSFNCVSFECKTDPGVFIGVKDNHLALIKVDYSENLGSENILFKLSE
Method: (§1) The binding kinetics of the bispecific antibody 10C12-IL13 KIH IgG4 to human IL-33, cyno IL-33, and human IL-13 was assessed using SPR on a BIACORE® 3000 (GE Healthcare). Anti-human Fab (GE Healthcare) was immobilized on a CM5 sensor chip via amine-based coupling according to the manufacturer's protocol. The bispecific antibody was captured and binding was measured to human IL-33 (Genentech), cyno IL-33 (Genentech), and human IL-13 (Peprotech). […] Sensograms for binding of cytokine were recorded using an injection time of 2 min with a flow rate of 30 μl/min, at a temperature of 25° C., and with a running buffer of 10 mM HEPES, pH 7.4, 150 mM NaCl, 3 mM EDTA, and 0.005% TWEEN®-20. After injection, disassociation of the ligand from the antibody was monitored for 600 sec in running buffer. The surface was regenerated between binding cycles with a 40 μl injection of 10 mM Glycine-HCl pH 2.1. After subtraction of a blank which contained running buffer only, sensograms observed for cytokine binding to the bispecific antibody were analyzed using a 1:1 Langmuir binding model with software supplied by the manufacturer to calculate the kinetics and binding constants, including the dissociation constant (KD).

[4] = biological target: T1, human IL-33 (construct not stated); test: as above
Method: as §1

[5] = biological target: T4, human IL-13 (Peprotech) (human, UniProt P35225 35-146); test: as above
T4 sequence (P35225 35-146 limits assumed): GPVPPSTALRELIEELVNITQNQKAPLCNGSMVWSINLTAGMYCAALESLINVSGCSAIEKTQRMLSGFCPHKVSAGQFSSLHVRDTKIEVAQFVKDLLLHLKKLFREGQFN
Method: as §1

[6] = biological target: T3, cyno IL-33 (construct not stated); test: SPR Biacore 3000, captured by anti-human Fab, 25 C, mean of three lots
Method: (§2) The binding kinetics of the bispecific antibody 10C12-IL-13 KIH IgG4 to human IL-33, cyno IL-33, and human IL-13 was assessed using BIACORE® 3000 SPR (FIG. 20).
as §1

[7] = biological target: T1, human IL-33 (construct not stated); test: as above
Method: as §2, §1

[8] = biological target: T4, human IL-13 (Peprotech); test: as above
Method: as §2, §1

[9] = biological target: T3, cyno IL-33 (construct not stated); test: SPR, BIACORE 3000, antibody captured on anti-human Fab, 25 C, 1:1 Langmuir model; lot 2
Method: as §1

[10] = biological target: T1, human IL-33 (construct not stated); test: as above
Method: as §1

[11] = biological target: T4, human IL-13 (Peprotech); test: as above
Method: as §1

[12] = biological target: T3, cyno IL-33 (construct not stated); test: SPR, BIACORE 3000, antibody captured on anti-human Fab, 25 C, 1:1 Langmuir model; lot 3
Method: as §1

[13] = biological target: T1, human IL-33 (construct not stated); test: as above
Method: as §1

[14] = biological target: T4, human IL-13 (Peprotech); test: as above
Method: as §1

- IC50 (read off the curve); phospho-p38 MFI in CD123+ basophils (average from 2 donors), 10 ng/ml IL-33 [1]: ~0.5 nM
- IC50; SEAP reporter, HEK-BLUE IL-33 cells, 15 pM human IL-33 N-His, 20 h [2]: 25.4 pM
- Kd [3]: 0.107 nM
- koff [3]: 7.2e-05 s⁻¹
- kon [3]: 670000 M⁻¹ s⁻¹
- Kd [4]: 0.01 nM
- koff [4]: 1.1e-05 s⁻¹
- kon [4]: 1.1e+06 M⁻¹ s⁻¹
- Kd [5]: < 0.01 nM
- koff [5]: 2e-06 s⁻¹
- kon [5]: 1.49e+06 M⁻¹ s⁻¹
- Kd [6]: 0.076 nM
- Kd [7]: 0.025 nM
- Kd [8]: < 0.01 nM
- Kd [9]: 0.062 nM
- koff [9]: 4e-05 s⁻¹
- kon [9]: 650000 M⁻¹ s⁻¹
- Kd [10]: 0.026 nM
- koff [10]: 3e-05 s⁻¹
- kon [10]: 1.14e+06 M⁻¹ s⁻¹
- Kd [11]: < 0.01 nM
- koff [11]: 4e-06 s⁻¹
- kon [11]: 1.47e+06 M⁻¹ s⁻¹
- Kd [12]: 0.059 nM
- koff [12]: 4.1e-05 s⁻¹
- kon [12]: 700000 M⁻¹ s⁻¹
- Kd [13]: 0.041 nM
- koff [13]: 4e-05 s⁻¹
- kon [13]: 990000 M⁻¹ s⁻¹
- Kd [14]: < 0.01 nM
- koff [14]: 6e-06 s⁻¹
- kon [14]: 1.45e+06 M⁻¹ s⁻¹
B1: 10C12.38.H6.87Y.58I/IL-13 IgG4 (bispecific antibody)
heavy 1: EVQLVESGGGLVQPGGSLRLSCAASGFTFSSFSMSWVRQAPGKGLEWVATISGGKTFTDYVDSVKGRFTISRDDSKNTLYLQMNSLRAEDTAVYYCTRANYGNWFFEVWGQGTLVTVSSASTKGPSVFPLAPCSRSTSESTAALGCLVKDYFPEPVTVSWNSGALTSGVHTFPAVLQSSGLYSLSSVVTVPSSSLGTKTYTCNVDHKPSNTKVDKRVESKYGPPCPPCPAPEFLGGPSVFLFPPKPKDTLMISRTPEVTCVVVDVSQEDPEVQFNWYVDGVEVHNAKTKPREEQFNSTYRVVSVLTVLHQDWLNGKEYKCKVSNKGLPSSIEKTISKAKGQPREPQVYTLPPSQEEMTKNQVSLSCAVKGFYPSDIAVEWESNGQPENNYKTTPPVLDSDGSFFLVSRLTVDKSRWQEGNVFSCSVMHEALHNHYTQKSLSLSLG
light 1: EIVLTQSPATLSLSPGERATLSCRASESVAKYGLSLLNWFQQKPGQPPRLLIFAASNRGSGIPARFSGSGSGTDFTLTISSLEPEDFAVYYCQQSKEVPFTFGQGTKVEIKRTVAAPSVFIFPPSDEQLKSGTASVVCLLNNFYPREAKVQWKVDNALQSGNSQESVTEQDSKDSTYSLSSTLTLSKADYEKHKVYACEVTHQGLSSPVTKSFNRGEC
heavy 2: not shown
light 2: DIVLTQSPDSLSVSLGERATINCRASKSVDSYGNSFMHWYQQKPGQPPKLLIYLASNLESGVPDRFSGSGSGTDFTLTISSLQAEDVAVYYCQQNNEDPRTFGGGTKVEIKRTVAAPSVFIFPPSDEQLKSGTASVVCLLNNFYPREAKVQWKVDNALQSGNSQESVTEQDSKDSTYSLSSTLTLSKADYEKHKVYACEVTHQGLSSPVTKSFNRGEC
notes: Knob-in-hole human IgG4 made in E. coli: anti-IL-33 arm as hole, anti-IL-13 arm (lebrikizumab CDRs; Q1E heavy, M4L light) as knob; also called 10C12-IL-13 KIH IgG4; 10C12-IL13 KIH IgG4
